The record followed here is patent EP1234033B1.

The assay addresses FGF receptor-3c on human osteosarcoma cell line (ATCC, CRL 1543) (human) (UniProt P22607). Description: cell-based or functional assay.

A value given as a limit tells only on which side of the number the result lay.

Sequence of UniProt P22607 (P22607 23-806): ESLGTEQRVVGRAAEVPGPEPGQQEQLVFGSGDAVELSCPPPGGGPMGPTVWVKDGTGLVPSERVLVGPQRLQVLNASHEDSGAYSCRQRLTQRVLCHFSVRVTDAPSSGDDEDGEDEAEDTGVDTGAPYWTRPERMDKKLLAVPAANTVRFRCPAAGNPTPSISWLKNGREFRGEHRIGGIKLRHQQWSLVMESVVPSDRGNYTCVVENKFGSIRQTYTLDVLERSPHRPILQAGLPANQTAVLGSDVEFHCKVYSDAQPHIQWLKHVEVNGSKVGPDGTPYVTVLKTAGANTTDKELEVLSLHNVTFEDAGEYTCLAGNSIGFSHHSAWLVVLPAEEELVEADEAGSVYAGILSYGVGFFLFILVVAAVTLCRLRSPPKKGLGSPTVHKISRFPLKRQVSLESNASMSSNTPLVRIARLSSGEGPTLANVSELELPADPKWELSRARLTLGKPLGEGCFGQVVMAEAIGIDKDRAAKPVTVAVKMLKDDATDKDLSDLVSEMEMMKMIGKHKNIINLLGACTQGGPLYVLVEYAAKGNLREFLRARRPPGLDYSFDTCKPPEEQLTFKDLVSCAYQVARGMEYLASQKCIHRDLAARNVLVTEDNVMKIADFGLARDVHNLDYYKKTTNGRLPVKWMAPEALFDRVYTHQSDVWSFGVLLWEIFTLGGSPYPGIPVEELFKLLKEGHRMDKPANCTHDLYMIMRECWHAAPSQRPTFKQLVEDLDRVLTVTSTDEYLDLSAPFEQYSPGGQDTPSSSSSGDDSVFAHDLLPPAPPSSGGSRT

On to FGF-18-saporin conjugate, for which the LD50 (sensitivity of cell line to the FGF-18-saporin conjugate) is less than 1 nM.
